T1: Myo5 SH3 (MYO5_YEAST), Q04439
T1 chain: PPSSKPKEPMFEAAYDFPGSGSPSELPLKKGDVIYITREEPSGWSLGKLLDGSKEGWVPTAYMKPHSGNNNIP


Target: T1, Myo5 SH3 (MYO5_YEAST), Q04439
Assay: SPOT array

Binder | normalised SPOT signal, Boehringer light units (BLU); mean over the file's lines of this peptide
YFKNMSNPKIPATK [YIL125W 74-87] | 128
AFHELGIPVIPNPS [YDR232W 404-417] | 193
WLLPYSLPMHPGRW [YHR072W 218-231] | 706
VLLPLRLPEIPPKG [YFL036W 1323-1336] | 1070
AEFDLTDPEVPSFY [YDR362C 446-459] | 166
AAVRLDQPILPQND [YBR018C 82-95] | 105
AAMMLGNPMAPAVQ [YER109C 209-222] | 257
VPSAFTAPPVPTKK [YDR517W 312-325] | 358
YEQTMKSPKYPSTY [YDR314C 535-548] | 138
AELFLRRPIFPGRD [YBL016W 214-227] | 216
VPDQLLTPLQPYTI [YJL127C 32-45] | 168
AELMLRIPYLPGQN [YDL108W 196-209] | 236
VLIKFVIPVYPSLP [YGR099W 37-50] | 562
YFKELPPPSDPSSI [YDL108W 289-302] | 165
VLKTLAFPINPSDI [YBR026C 53-66] | 156
AEAYLVTPEEPAKN [YDL129W 9-22] | 39.6

Binder | normalised SPOT signal, Boehringer light units (BLU); mean over the file's lines of this peptide
YASQYSRPDGPILL [YGR088W 39-52] | 114
AANAHISPPVPGPA [YHL002W 373-386] | 28.6
VPNRWATPLDPSIL [YAL015C 71-84] | 126
YEGRFWNPENPYKF [YEL011W 167-180] | 163
VLGVLNVPLPPQTR [YGL197W 857-870] | 233
YLNNLAEPLIPLSL [YDR389W 216-229] | 222
AAYDHAEPVQPEDA [YGL009C 504-517] | 146
VPDSYKPPKNPIVF [YDR058C 17-30] | 829
VLTKMNAPQKPEDI [YCR004C 46-59] | 296
YLLELPDPLIPNDV [YFL047W 564-577] | 163
AEVYYGPPTDPRKQ [YDR001C 32-45] | 83.5
VPGEHFAPMGPNGQ [YHR098C 250-263] | 64.7
AFHFWRPPIAPAEM [YDR230W 49-62] | 1960
WLSKLVLPPPPVSI [YHR021W-A 81-94] | 4130
AAPKHAPPPVPNET [YDL019C 770-783] | 111000
YEKALHFPAGPKST [YFL042C 472-485] | 147

Results, then the binder that gave them:

normalised SPOT signal, Boehringer light units (BLU); mean over the file's lines of this peptide | Binder
290 | VLKGFYSPSAPSYD [YOR029W 22-35]
215 | VPIIFEIPFNPIYK [YKL205W 1001-1014]
138 | VPAILMTPISPRSL [YPL188W 282-295]
131 | ALDYLIPPPMPKNQ [YOL135C 61-74]
125 | YEADYVIPVLPGSH [YNL262W 2031-2044]
148 | VLKNLPTPGEPFNF [YML131W 8-21]
132 | YLNSLSEPLVPLAL [YOR134W 141-154]
144 | YWKLFFQPEYPVRM [YLR128W 190-203]
169 | YLTEFSRPIPPTPS [YPL009C 61-74]
166 | AARILANPDHPFSR [YPR122W 171-184]
275 | AADWYEVPKVPLSA [YLR223C 813-826]
220 | YPAKLRIPETPVKK [YJL187C 187-200]
172 | AELLLGQPMFPGES [YMR139W 231-244]
181 | ALDNFTLPGTPGFP [YLR370C 101-114]
157 | YPEKFQKPYNPLAM [YJR059W 450-463]
122 | YENSHSLPLDPQSP [YLR416C 105-118]
320 | VLSKFIKPKNPSLV [YPL226W 187-200]
111 | YEVTFDGPNDPLHP [YLL028W 124-137]
84.9 | AAMNLETPSNPDSA [YPL217C 1040-1053]
172 | YLPHMSRPLGPDEV [YMR131C 97-110]
11600 | VPLPFGIPPFPMFP [YKL059C 406-419]
37.9 | AADSHAIPVDPPSY [YKR021W 673-686]
1570 | VPPNFNAPPNPMAF [YNL118C 392-405]
101 | ALGFYRAPGSPAPA [YMR069W 242-255]
140 | VPGGMSIPGAPQGA [YPL169C 514-527]
36.7 | AELFLGIPIFPGAS [YJL141C 561-574]
